Biological target: PI3K p85 SH2 domains
Assay: SPR (BIAcore 3000), PI3K p85 SH2 domains
Type: binding
Conditions: HBS pH 7.4, 37°C, n = 3
Procedure: Experiments were conducted on a BIAcore™ 3000 in HBS buffer (0.01 M HEPES, pH 7.4, containing 0.15 M NaCl, 3 mM EDTA, and 0.005% v/v P-20, GE Life Sciences, Amersham, UK). Streptavidin was coupled to a research grade CM5 chip (GE Life Sciences, Amersham, UK) as previously described, [13]. Protein-peptide interactions were carried out a rate of 10 µl/min at a constant temperature of 37°C to more accurately reflect physiological conditions. Biotinylated peptides were bound to the streptavidin-coated CM5 chips at 37°C to between 25–50 RU [14]. Purified monomeric SH2 domains were passed over the immobilised peptides at a range of concentrations. Anti-phosphotyrosine monoclonal antibody (Sigma, Poole, U.K.) was passed over the chip to saturation at the end of each experiment to verify peptide coverage on the chip. Binding affinities for the single ITIM/ITSM peptides were determined by plotting equilibrium binding measurements (RU) against SH2 domain protein concentration (Origin 8, OriginLab, MA, USA). KD was defined as the concentration of SH2 protein that gave half maximal binding to the peptide. For the 60-mer peptides, SH2 domains were passed over the chip surface at 50 µl/min. KD was determined as Koff/Kon, which were determined using both GraphPad Prism 5.0 (GraphPad, La Jolla, CA, USA) and BIAevaluation Software (GE Life Sciences, Amersham,UK). […]

B1: G6B-b: inhibitory platelet receptor; affinities measured with its dual phosphopeptide (protein, UniProt O95866 18-241, looked up)
Megakaryocyte and platelet …: NPGASLDGRPGDRVNLSCGGVSHPIRWVWAPSFPACKGLSKGRRPILWASSSGTPTVPPLQPFVGRLRSLDSGIRRLELLLSAGDSGTFFCKGRHEDESRTVLHVLGDRTYCKAPGPTHGSVYPQLLIPLLGAGLVLGLGALGLVWWLHRRLPPQPIRPLPRFAPLVKTEPQRPVKEEEPKIPGDLDQEPSLLYADLDHLALSRPRRLSTADPADASTIYAVVV
Molecule B1 has a Kd of about 1000 nM.

— paper PMC3501490 (PLoS ONE, 2012)
